From publication PMC9978964

Assays:
Test in all cases: BLI
[1] = target: biotinylated FXR NES peptide (amino acids 401–454), T442 non-phosphorylated (human)
[2] = target: biotinylated FXR NES peptide (amino acids 401–454), T442 phosphorylated (human)
[3] = target: biotinylated FXR NLS peptide (amino acids 191–230), K217 acetylated (human)
[4] = target: biotinylated FXR NLS peptide (amino acids 191–230), K217 non-acetylated (human)

Substance	Kd [1] [nM]	Kd [2] [nM]	Kd [3] [nM]	Kd [4] [nM]
CRM1 protein used in the BLI assay (from UniProt O14980 1-1071) (natural protein)	90.1	181		
KPNA3 protein used in the BLI assay (from UniProt O00505 1-521) (natural protein)			51	17.4
